Assay results from patent publication US20190241669A1 (published 2019).
Substitutions are numbered along the chain they refer to.

B1: COMBO_Rd4_6nM_C11 (antibody, V domains shown)
VH: EVQLLESGGGLVQPGGSLRLSCAASGFTFSSYPMSWVRQAPGKGLEWVSAIGGSGGSLGYADSVKGRFTISRDNSKNTLYLQMNSLRAEDTAVYYCARYWPMDSWGQGTLVTVSS
VL: EIVLTQSPGTLSLSPGERATLSCRASQSVSPLYLAWYQQKPGQAPRLLMYDASIRATGIPDRFSGSGSGTDFTLTISRLEPEDFAVYYCQQYKAWPLTFGQGTKVEIK
notes: IgG
B2: COMBO_Rd4_0.6nM_C22 (antibody, V domains shown)
VH: B1 VH with P33A, S35N, G52S, G53D, L58R, G59W, A97T, S104I
VL: B1 VL with Q27V, S28R, P31S, L32T, K93M, A94K
notes: IgG; also called COM22
B3: A02_Rd4_0.6nM_C18 (antibody, V domains shown)
VH: B1 VH with P33A, S35N, I51V, G52L, G53D, L58T, G59Y, D103S, S104L
VL: B1 VL with P31E, K93F, A94G
notes: IgG
B4: COMBO_Rd4_6nM_C12 (antibody, V domains shown)
VH: EVQLLESGGGLVQPGGSLRLSCAASGFTFSSYPMSWVRQAPGKGLEWVSAALGSGGSTYYADSVKGRFTISRDNSKNTLYLQMNSLRAEDTAVYYCARYWPMDSWGQGTLVTVS
VL: B1 VL with P31A, L32S, K93M, A94S
notes: IgG
B5: COMBO_Rd4_6nM_C22 (antibody, V domains shown)
VH: B1 VH with P33A, S35N, I51C, G52L, G53D, L58T, G59Y
VL: B1 VL with P31S, L32S, K93Q, A94G
notes: IgG
B6: P5A2_VHVL (antibody, V domains shown)
VH: B1 VH with P33A, S35N, G52S, G53D, L58T, G59Y, S104I
VL: B1 VL with P31S, L32S, K93G, A94S
notes: IgG
B7: COMBO_Rd4_6nM_C25 (antibody, V domains shown)
VH: B1 VH with L58T, G59Y, S104P
VL: B1 VL with P31S, L32P, K93Q, A94S
notes: IgG
B8: COMBO_Rd4_6nM_C21 (antibody, V domains shown)
VH: B1 VH with G59P
VL: B1 VL with P31A, L32A, K93M, A94C
notes: IgG
B9: P5C1_VHVL (antibody, V domains shown)
VH: B1 VH with L58T, G59Y
VL: B1 VL with P31S, L32T, M49I, I54S, T57P, K93S, A94T, W95S
notes: IgG; also called PC1
B10: L3.PY/L3.KF/H3.AQ (antibody, V domains shown)
VH: EVQLLESGGGLVQPGGSLRLSCAASGFTFGSYAMTWVRQAPGKGLEWVSAISGSGGNTFYADSVKGRFTISRDNSKNTLYLQMNSLRAEDTAVYYCARVSPIAAQMDYWGQGTLVTVSS
VL: EIVLTQSPGTLSLSPGERATLSCRASQSVSSSYLAWYQQKPGQAPRLLIYGASSRATGIPDRFSGSGSGTDFTLTISRLEPEDFAVYYCKFYPYPPSFTFGQGTKVEIK
notes: IgG
B11: L3.PY/L1.FF/H2.QR (antibody, V domains shown)
VH: B10 VH with S63Q, V64R, A104S, Q105G
VL: B10 VL with S32F, Y33F, K90Q, F91H
notes: IgG
B12: L3.PY/L1.FF/H3.AQ (antibody, V domains shown)
VH: B10 VH
VL: B10 VL with S32F, Y33F, K90Q, F91H
notes: IgG
B13: L3.PY/L1.AH/H3.TAQ (antibody, V domains shown)
VH: B10 VH with A97T
VL: B10 VL with S31A, S32H, K90Q, F91H
notes: IgG
B14: L3.PY/L1.PH/H3.AE (antibody, V domains shown)
VH: B10 VH with Q105E
VL: B10 VL with S31P, S32H, K90Q, F91H
notes: IgG
B15: L3.PY/L1.PH/H2.QR (antibody, V domains shown)
VH: B10 VH with S63Q, V64R, A104S, Q105G
VL: B10 VL with S31P, S32H, K90Q, F91H
notes: IgG
B16: L3.PY/L1.FF/H3.AE (antibody, V domains shown)
VH: B10 VH with Q105E
VL: B10 VL with S32F, Y33F, K90Q, F91H
notes: IgG
B17: L3.PY/L1.FF/H2.YQ (antibody, V domains shown)
VH: B10 VH with G53Y, S54Q, A104S, Q105G
VL: B10 VL with S32F, Y33F, K90Q, F91H
notes: IgG
B18: L3.PY/L1.FF/H3.YA (antibody, V domains shown)
VH: B10 VH with A103Y, Q105G
VL: B10 VL with S32F, Y33F, K90Q, F91H
notes: IgG
B19: L3.PY/L1.FF/H2.DY (antibody, V domains shown)
VH: B10 VH with S52D, G53Y, A104S, Q105G
VL: B10 VL with S32F, Y33F, K90Q, F91H
notes: IgG
B20: L3.PY/L1.PH/H3.AQ (antibody, V domains shown)
VH: B10 VH
VL: B10 VL with S31P, S32H, K90Q, F91H
notes: IgG
B21: L3.PY/L1.FF/H2.LT (antibody, V domains shown)
VH: B10 VH with G53L, S54T, A104S, Q105G
VL: B10 VL with S32F, Y33F, K90Q, F91H
notes: IgG
B22: L3.PY/L1.PH/H2.HA (antibody, V domains shown)
VH: B10 VH with G53H, S54A, A104S, Q105G
VL: B10 VL with S31P, S32H, K90Q, F91H
notes: IgG
B23: L3.PY/L1.FF/H2.QL (antibody, V domains shown)
VH: B10 VH with S63Q, V64L, A104S, Q105G
VL: B10 VL with S32F, Y33F, K90Q, F91H
notes: IgG
B24: L3.PY/L1.FF/H2.HA (antibody, V domains shown)
VH: B10 VH with G53H, S54A, A104S, Q105G
VL: B10 VL with S32F, Y33F, K90Q, F91H
notes: IgG
B25: L3.PY/L1.FF/H3.TAQ (antibody, V domains shown)
VH: B10 VH with A97T
VL: B10 VL with S32F, Y33F, K90Q, F91H
notes: IgG

What was measured:
cynomolgus monkey BCMA [1] = molecular target: T1, cynomolgus monkey BCMA (cynomolgus monkey, UniProt A0A2K5UD97 1-53); experiment: SPR, IgG on chip, cyBCMA analyte
T1 construct: Soluble analyte in SPR; construct not described; also called cyBCMA; Cyno BCMA
T1 sequence (A0A2K5UD97 entry or part of it): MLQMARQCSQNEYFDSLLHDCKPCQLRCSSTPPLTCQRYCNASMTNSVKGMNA

Human BCMA (human) [2] = molecular target: Human BCMA (human) (UniProt Q02223); experiment: SPR, IgG on chip, huBCMA analyte
cynomolgus monkey BCMA [3] = molecular target: T1, cynomolgus monkey BCMA; experiment: SPR, IgG on chip, cyBCMA analyte, 37C
Human BCMA (human) [4] = molecular target: Human BCMA (human) (UniProt Q02223); experiment: SPR, IgG immobilised, huBCMA analyte, 37 C

| Binder | Kd (cynomolgus monkey BCMA [1]) | koff (cynomolgus monkey BCMA [1]) | kon (cynomolgus monkey BCMA [1]) | Kd (Human BCMA (human) [2]) | koff (Human BCMA (human) [2]) | kon (Human BCMA (human) [2]) | Kd (cynomolgus monkey BCMA [3]) | T½ (cynomolgus monkey BCMA [3]) | koff (cynomolgus monkey BCMA [3]) | kon (cynomolgus monkey BCMA [3]) | Kd (Human BCMA (human) [4]) | T½ (Human BCMA (human) [4]) | koff (Human BCMA (human) [4]) | kon (Human BCMA (human) [4]) |
| --- | --- | --- | --- | --- | --- | --- | --- | --- | --- | --- | --- | --- | --- | --- |
| B1 | 156 pM | 0.000412 s⁻¹ | 2.64e+06 M⁻¹ s⁻¹ | 18 pM | 0.000124 s⁻¹ | 6.74e+06 M⁻¹ s⁻¹ |  |  |  |  |  |  |  |  |
| B2 | 50 pM | 6.66e-05 s⁻¹ | 1.34e+06 M⁻¹ s⁻¹ | 36 pM | 7.15e-05 s⁻¹ | 1.97e+06 M⁻¹ s⁻¹ |  |  |  |  |  |  |  |  |
| B3 | 197 pM | 0.000639 s⁻¹ | 3.24e+06 M⁻¹ s⁻¹ | 48 pM | 0.000229 s⁻¹ | 4.73e+06 M⁻¹ s⁻¹ |  |  |  |  |  |  |  |  |
| B4 | 148 pM | 0.000486 s⁻¹ | 3.29e+06 M⁻¹ s⁻¹ | 20 pM | 0.00027 s⁻¹ | 1.38e+07 M⁻¹ s⁻¹ |  |  |  |  |  |  |  |  |
| B5 | 972 pM | 0.00165 s⁻¹ | 1.7e+06 M⁻¹ s⁻¹ | 256 pM | 0.000775 s⁻¹ | 3.03e+06 M⁻¹ s⁻¹ |  |  |  |  |  |  |  |  |
| B6 | 10200 pM | 0.0164 s⁻¹ | 1.61e+06 M⁻¹ s⁻¹ | 5570 pM | 0.0387 s⁻¹ | 6.96e+06 M⁻¹ s⁻¹ |  |  |  |  |  |  |  |  |
| B7 | 79 pM | 0.000226 s⁻¹ | 2.85e+06 M⁻¹ s⁻¹ | 14 pM | 0.000113 s⁻¹ | 7.98e+06 M⁻¹ s⁻¹ |  |  |  |  |  |  |  |  |
| B8 | 78 pM | 0.000248 s⁻¹ | 3.17e+06 M⁻¹ s⁻¹ | 6 pM | 7.34e-05 s⁻¹ | 1.17e+07 M⁻¹ s⁻¹ |  |  |  |  |  |  |  |  |
| B9 | 15200 pM | 0.0538 s⁻¹ | 3.53e+06 M⁻¹ s⁻¹ | 5990 pM | 0.0692 s⁻¹ | 1.16e+07 M⁻¹ s⁻¹ |  |  |  |  |  |  |  |  |
| B10 |  |  |  |  |  |  | 930 pM | 4.85 min | 0.00238 s⁻¹ | 2.55e+06 M⁻¹ s⁻¹ | 650 pM | 5.09 min | 0.00227 s⁻¹ | 3.48e+06 M⁻¹ s⁻¹ |
| B11 |  |  |  |  |  |  | 1650 pM | 2.75 min | 0.00421 s⁻¹ | 2.55e+06 M⁻¹ s⁻¹ | 510 pM | 6.54 min | 0.00177 s⁻¹ | 3.47e+06 M⁻¹ s⁻¹ |
| B12 |  |  |  |  |  |  | 1510 pM | 3.51 min | 0.00329 s⁻¹ | 2.18e+06 M⁻¹ s⁻¹ | 460 pM | 7.51 min | 0.00154 s⁻¹ | 3.32e+06 M⁻¹ s⁻¹ |
| B13 |  |  |  |  |  |  | 1320 pM | 3.83 min | 0.00302 s⁻¹ | 2.28e+06 M⁻¹ s⁻¹ | 370 pM | 9.68 min | 0.00119 s⁻¹ | 3.27e+06 M⁻¹ s⁻¹ |
| B14 |  |  |  |  |  |  | 770 pM | 5.72 min | 0.00202 s⁻¹ | 2.61e+06 M⁻¹ s⁻¹ | 360 pM | 8.61 min | 0.00134 s⁻¹ | 3.68e+06 M⁻¹ s⁻¹ |
| B15 |  |  |  |  |  |  | 1800 pM | 2.65 min | 0.00436 s⁻¹ | 2.42e+06 M⁻¹ s⁻¹ | 640 pM | 4.89 min | 0.00236 s⁻¹ | 3.69e+06 M⁻¹ s⁻¹ |
| B16 |  |  |  |  |  |  | 1760 pM | 2.31 min | 0.00501 s⁻¹ | 2.85e+06 M⁻¹ s⁻¹ | 690 pM | 4.39 min | 0.00263 s⁻¹ | 3.82e+06 M⁻¹ s⁻¹ |
| B17 |  |  |  |  |  |  | 1490 pM | 3.55 min | 0.00326 s⁻¹ | 2.19e+06 M⁻¹ s⁻¹ | 460 pM | 7.61 min | 0.00152 s⁻¹ | 3.32e+06 M⁻¹ s⁻¹ |
| B18 |  |  |  |  |  |  | 1690 pM | 2.77 min | 0.00416 s⁻¹ | 2.46e+06 M⁻¹ s⁻¹ | 510 pM | 6.41 min | 0.0018 s⁻¹ | 3.5e+06 M⁻¹ s⁻¹ |
| B19 |  |  |  |  |  |  | 1880 pM | 2.31 min | 0.005 s⁻¹ | 2.66e+06 M⁻¹ s⁻¹ | 650 pM | 4.27 min | 0.00271 s⁻¹ | 4.14e+06 M⁻¹ s⁻¹ |
| B20 |  |  |  |  |  |  | 1500 pM | 3.39 min | 0.00341 s⁻¹ | 2.28e+06 M⁻¹ s⁻¹ | 520 pM | 7.27 min | 0.00159 s⁻¹ | 3.08e+06 M⁻¹ s⁻¹ |
| B21 |  |  |  |  |  |  | 1560 pM | 3.38 min | 0.00341 s⁻¹ | 2.19e+06 M⁻¹ s⁻¹ | 510 pM | 6.92 min | 0.00167 s⁻¹ | 3.3e+06 M⁻¹ s⁻¹ |
| B22 |  |  |  |  |  |  | 3440 pM | 2.09 min | 0.00553 s⁻¹ | 1.61e+06 M⁻¹ s⁻¹ | 490 pM | 9.99 min | 0.00116 s⁻¹ | 2.37e+06 M⁻¹ s⁻¹ |
| B23 |  |  |  |  |  |  | 1910 pM | 2.57 min | 0.00449 s⁻¹ | 2.36e+06 M⁻¹ s⁻¹ | 400 pM | 8.28 min | 0.0014 s⁻¹ | 3.48e+06 M⁻¹ s⁻¹ |
| B24 |  |  |  |  |  |  | 1790 pM | 2.77 min | 0.00417 s⁻¹ | 2.33e+06 M⁻¹ s⁻¹ | 630 pM | 5.29 min | 0.00219 s⁻¹ | 3.49e+06 M⁻¹ s⁻¹ |
| B25 |  |  |  |  |  |  | 1620 pM | 3.07 min | 0.00376 s⁻¹ | 2.32e+06 M⁻¹ s⁻¹ | 540 pM | 6.12 min | 0.00189 s⁻¹ | 3.52e+06 M⁻¹ s⁻¹ |
